Our source for the switch fluorescence ratio values is the supplement of paper PMC10126150.

The subject of the data set is ATP. The data set is described as follows: switch fluorescence ratio, 500 uM ATP over buffer (Cy3 cluster intensity, sum of 5 cycles each) (fold (ratio)); higher = stronger signal-on switching upon ATP binding; sequences stand for … in TCGTCGGCAGCGTCAGATGTGTATAAGAGACAGTTTTTTTTTTTTTTTTTTTTTTTTT…TC. The note with it: aptamer strand: ATP DNA aptamer (quencher-CACCTGGGGGAGTATTGCGGAGGAAGG + anchor), 100 nM annealed; ATP concentration: 500 uM. In short, it runs like this: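 Cy3-labelled switching-strand clusters on a modified Illumina MiSeq flow-cell were annealed to 100 nM quencher-labelled ATP aptamer, imaged in selection buffer, then imaged after 15 min with 500 uM ATP at 22 °C. Five buffer/ATP cycles ran, with NaOH stripping and re-annealing between them. The fluorescence ratio is summed target-cycle over summed buffer-cycle Cy3 intensity per cluster, averaged per switch-domain sequence. Clusters outside 100-1000 RFU were excluded.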

± gives the standard deviation of the averaged measurements.
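Note: ATP exposure 15 min at 22 °C before imaging.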

Consider GGGTGCATAG, for which the switch fluorescence ratio is 1.03 ± 0.045.

For GGGTGCCAGT, the switch fluorescence ratio worked out at 0.963 ± 0.011.

As for GGGTGCCGGG, the switch fluorescence ratio was 0.911 ± 0.12.

Take GGGTGCCGTG: the switch fluorescence ratio was found to be 1.03 ± 0.047. As to GGGTGCGCGT, the switch fluorescence ratio came out at 0.977 ± 0.011. As to GGGTGCGGAG, the switch fluorescence ratio was 0.956 ± 0.035. Consider GGGTGCGGCG, for which the switch fluorescence ratio was found to be 0.968 ± 0.035. As to GGGTGCTTTG, the switch fluorescence ratio was 1.02 ± 0.029. GGGTGGAAAG: the switch fluorescence ratio was 0.984 ± 0.041. Take GGGTGGCCTA: the switch fluorescence ratio worked out at 1 ± 0.015.

In the case of GGGTGGCGCC, the switch fluorescence ratio amounted to 0.988 ± 0.012. For GGGTGGGAGT, the switch fluorescence ratio was found to be 1.026 ± 0.0097.

Regarding GGGTGGGATT, the switch fluorescence ratio is 0.986 ± 0.018. As for GGGTGGGCGC, the figure is 1.01 ± 0.058; as for GGGTGGGGAA, 0.963 ± 0.075; as for GGGTGGGGTT, 0.991 ± 0.017.

Take GGGTGGTTGG: the switch fluorescence ratio worked out at 0.999 ± 0.0088. For the sequence GGGTGTAATT, the switch fluorescence ratio worked out at 1 ± 0.016. For GGGTGTACAA, the switch fluorescence ratio turned out to be 0.98 ± 0.019. As for GGGTGTACGG, the figure is 1.04 ± 0.024; as for GGGTGTATGG, 0.981 ± 0.012.

As to GGGTGTGAAC, the switch fluorescence ratio came out at 0.9859 ± 0.0046. Take GGGTGTGGAC: the switch fluorescence ratio worked out at 1.04 ± 0.023. As for GGGTGTGGAG, the figure is 1.01 ± 0.012. In the case of GGGTGTGGTA, the switch fluorescence ratio was found to be 0.9967 ± 0.0096. As for GGGTGTTCTG, the figure is 1.01 ± 0.018. Take GGGTGTTGCT: the switch fluorescence ratio was determined as 1 ± 0.017. On to GGGTGTTTGG, for which the switch fluorescence ratio amounted to 1.03 ± 0.026. As to GGGTTAAGTT, the switch fluorescence ratio amounted to 1 ± 0.027. As for GGGTTAATAT, the switch fluorescence ratio was found to be 1.04 ± 0.055. As for GGGTTAATCT, the switch fluorescence ratio amounted to 0.9983 ± 0.0016. As to GGGTTAATTC, the switch fluorescence ratio came to 1.03 ± 0.088. For the sequence GGGTTACTGT, the switch fluorescence ratio turned out to be 0.985 ± 0.012. For GGGTTAGGAT, the switch fluorescence ratio was found to be 0.98 ± 0.029. Consider GGGTTAGGTC, for which the switch fluorescence ratio came out at 1.02 ± 0.013. Turning to GGGTTAGTAG, the switch fluorescence ratio came to 1 ± 0.017. As for GGGTTAGTGG, the figure is 0.976 ± 0.032.

On to GGGTTATGAA, for which the switch fluorescence ratio stood at 0.994 ± 0.022. Regarding GGGTTATGGT, the switch fluorescence ratio was determined as 0.998 ± 0.028. Consider GGGTTATTGG, for which the switch fluorescence ratio was 0.991 ± 0.04. As for GGGTTATTTC, the figure is 1.02 ± 0.023; as for GGGTTCAAAG, 0.9818 ± 0.006. GGGTTCAAGG: the switch fluorescence ratio was determined as 0.995 ± 0.048.

In the case of GGGTTCAGGT, the switch fluorescence ratio is 1.0068 ± 0.00055. Turning to GGGTTCAGTG, the switch fluorescence ratio is 0.982 ± 0.026. Take GGGTTCATGG: the switch fluorescence ratio came to 1.01 ± 0.047. In the case of GGGTTCATTT, the switch fluorescence ratio is 1.019 ± 0.0015.

With GGGTTCCAGG, the switch fluorescence ratio was 1.26 ± 0.098. For GGGTTCGGTG, the switch fluorescence ratio came to 1.01 ± 0.039. Turning to GGGTTCTATT, the switch fluorescence ratio is 1 ± 0.014.

On to GGGTTCTTC, for which the switch fluorescence ratio was 1.05 ± 0.1.

On to GGGTTCTTGT, for which the switch fluorescence ratio came to 1.04 ± 0.057. As for GGGTTCTTTA, the figure is 0.997 ± 0.048; as for GGGTTGACCT, 1.07 ± 0.067.

Regarding GGGTTGAGGT, the switch fluorescence ratio was determined as 0.9843 ± 0.0092. Regarding GGGTTGATAG, the switch fluorescence ratio stood at 1.01 ± 0.021. On to GGGTTGATCG, for which the switch fluorescence ratio turned out to be 0.9875 ± 0.0046. Regarding GGGTTGCAAC, the switch fluorescence ratio was determined as 1.24 ± 0.32. GGGTTGCTGG: the switch fluorescence ratio worked out at 1 ± 0.03. With GGGTTGCTTA, the switch fluorescence ratio amounted to 0.99 ± 0.023. In the case of GGGTTGGAAT, the switch fluorescence ratio was 0.9878 ± 0.003. In the case of GGGTTGGGG, the switch fluorescence ratio came to 0.995 ± 0.048. In the case of GGGTTGGGGA, the switch fluorescence ratio was 1.01 ± 0.025. As for GGGTTGTCTG, the figure is 0.961 ± 0.063.

As to GGGTTGTTGC, the switch fluorescence ratio was determined as 1 ± 0.037. In the case of GGGTTTAGAC, the switch fluorescence ratio worked out at 0.982 ± 0.032. With GGGTTTATCT, the switch fluorescence ratio stood at 0.986 ± 0.039.

As to GGGTTTCGAA, the switch fluorescence ratio came to 0.9702 ± 0.0018.

On to GGGTTTCGAG, for which the switch fluorescence ratio stood at 1.04 ± 0.016. As for GGGTTTCGAT, the figure is 0.984 ± 0.024; as for GGGTTTCGTG, 0.993 ± 0.015. As for GGGTTTCTCT, the switch fluorescence ratio amounted to 0.994 ± 0.032. On to GGGTTTGAGA, for which the switch fluorescence ratio is 1.005 ± 0.0042. Consider GGGTTTGGGG, for which the switch fluorescence ratio came to 0.988 ± 0.022. Take GGGTTTGTA: the switch fluorescence ratio was 0.965 ± 0.04. As for GGGTTTGTAC, the switch fluorescence ratio was found to be 1.13 ± 0.12. As for GGGTTTGTGT, the figure is 1.01 ± 0.019. As for GGGTTTTATT, the figure is 0.981 ± 0.036.

In the case of GGGTTTTCGA, the switch fluorescence ratio is 1.014 ± 0.0011. Regarding GGGTTTTCGT, the switch fluorescence ratio worked out at 0.9538 ± 0.0032. On to GGGTTTTTAC, for which the switch fluorescence ratio is 1.03 ± 0.033. As for GGGTTTTTGG, the figure is 0.997 ± 0.032. As for GGGTTTTTTT, the figure is 0.998 ± 0.044; as for GGTAAAAGTC, 1.01 ± 0.012.

As to GGTAAAGCAT, the switch fluorescence ratio was 1.027 ± 0.006. As to GGTAACGTTC, the switch fluorescence ratio was determined as 0.989 ± 0.015.

With GGTAAGGGGA, the switch fluorescence ratio was 0.991 ± 0.033. GGTAAGTGTT: the switch fluorescence ratio was 1.003 ± 0.0044. As to GGTAATAGAG, the switch fluorescence ratio was found to be 0.987 ± 0.05. Turning to GGTAATGGCA, the switch fluorescence ratio came out at 1.01 ± 0.039. As for GGTAATTTAG, the figure is 1.02 ± 0.015; as for GGTAATTTGA, 0.989 ± 0.024. With GGTAATTTTC, the switch fluorescence ratio stood at 1.11 ± 0.18. For GGTACAAGG, the switch fluorescence ratio was 1.01 ± 0.029. With GGTACAGGAC, the switch fluorescence ratio worked out at 1.06 ± 0.047. As for GGTACAGGGC, the figure is 1.065 ± 0.0073; as for GGTACCACTT, 0.992 ± 0.039. As for GGTACGGGCC, the figure is 1.011 ± 0.01; as for GGTACGTCGG, 0.979 ± 0.048. As for GGTACTGGAC, the figure is 1.087 ± 0.0021; as for GGTAGACTTT, 0.967 ± 0.017; as for GGTAGGCGAA, 0.9775 ± 0.0013. With GGTAGGTCGT, the switch fluorescence ratio was determined as 1.02 ± 0.074. As for GGTAGGTTGC, the figure is 1.03 ± 0.013; as for GGTAGTAGAT, 1.01 ± 0.0072; as for GGTAGTAGGC, 1.014 ± 0.0019. Turning to GGTAGTAGTG, the switch fluorescence ratio came out at 1.0054 ± 0.00082.

Take GGTAGTCGGG: the switch fluorescence ratio stood at 0.968 ± 0.014. Regarding GGTAGTGCTG, the switch fluorescence ratio is 0.982 ± 0.042. As for GGTAGTTGGT, the figure is 1.01 ± 0.011.

Regarding GGTAGTTTTC, the switch fluorescence ratio was determined as 0.9916 ± 0.0039.

Consider GGTATAATAC, for which the switch fluorescence ratio came to 1.23 ± 0.041. In the case of GGTATAATTG, the switch fluorescence ratio is 1.021 ± 0.0062. As for GGTATATAAA, the figure is 1.003 ± 0.0029. As for GGTATATGTT, the switch fluorescence ratio amounted to 1.01 ± 0.015.

As for GGTATATTCC, the switch fluorescence ratio was found to be 1.02 ± 0.024.

With GGTATCGAGG, the switch fluorescence ratio turned out to be 1.01 ± 0.015. Consider GGTATGCTCT, for which the switch fluorescence ratio worked out at 0.998 ± 0.065. For the sequence GGTATGGTCT, the switch fluorescence ratio came to 1.02 ± 0.022. As to GGTATGTTGG, the switch fluorescence ratio was 0.996 ± 0.011.
